± gives the uncertainty stated by the source.

The data set in a line: self-splicing fitness, log relative to wild type (ln ratio); higher = more splicing; Tetrahymena group I intron in knt gene, E. coli kanamycin selection, DiMSum; sequences stand for … in CUCUCU…GGAGGGAAAAGUUAUCAGGCAUGCACCUGGUAGCUAGUCUUUAAACCAAUAGAUUGCAUCGGUUUAAAAGGCAAGACCGUCAAAUUGCGGGAAAGGGGUCAACAGCCGUUCAGUACCAAGUCUCAGGGGAAACUUUGAGAUGGCCUUGCAAAGGGUAUGGUAAUAAGCUGACGGACAUGGUCCUAACCACGCAGCCAAGUCCUAAGUCAACAGAUCUUCUGUUGAUAUGGAUGCAGUUCACAGACUAAAUGUCGGUCGGGGAAGAUGUAUUCUUCUCAUAAGAUAUAGUCGGACCUCUCCUUAAUGGGAGCUAGCGGAUGAAGUGAUGCAACACUGGAGCCGCUGGGAACUAAUUUGUAUGCGAAAGUAUAUUGAUUAGUUUUGGAGUACUCGUGGUCG
The gist of the method:
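The eight P1ex-region nucleotides of an intron in the knt kanamycin-resistance gene on pET-22b(+) were all randomised and the library put into E. coli BL21(DE3). Six replicate transformations were grown overnight at 37°C or 30°C on LB agar with or without 25 μg/mL kanamycin, together with 100 μg/mL carbenicillin, 50 μM IPTG and 0.2% rhamnose. Colonies were pooled and amplicon-sequenced on an Illumina HiSeq 2500. Fitness from DiMSum is the error-weighted combination of wild-type-normalised replicate fold changes, kanamycin over none.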

On to ACGUAGCAAUAUUACGCCGA, for which the “self-splicing fitness (ln)” value by setting is: (30 °C) -1.34 ± 0.23; (37 °C) -0.566 ± 0.18.
Turning to GCCCAGCAAUAUUACGUGUG, the “self-splicing fitness (ln)” value is -2.21 ± 0.08 (30 °C) and -1.69 ± 0.081 (37 °C).
The like results for AGAAAGCAAUAUUACGUGCG were, in that order, -0.896 ± 0.092 and -0.684 ± 0.11.
The like results for UAAAAGCAAUAUUACGGAUA were, in that order, -1.35 ± 0.12 and 0.0185 ± 0.12.
Taken in the same sequence, the figures for UAACAGCAAUAUUACGUCUG were -0.467 ± 0.059 and 0.248 ± 0.077.
In the case of UUUCAGCAAUAUUACGAGUC, the “self-splicing fitness (ln)” value is, setting by setting: (30 °C) -3.12 ± 0.29; (37 °C) -1.97 ± 0.37.
The like results for AAGAAGCAAUAUUACGCAAC were, in that order, -1.53 ± 0.12 and -2.1 ± 0.18.
The like results for CCACAGCAAUAUUACGGGUA were, in that order, -3.44 ± 0.21 and -2.88 ± 0.18.
Take GAAGAGCAAUAUUACGGUAC: the “self-splicing fitness (ln)” value by setting is: (30 °C) -3.39 ± 0.31; (37 °C) -1.69 ± 0.32.
CGGCAGCAAUAUUACGCAAC: where the note is “37 °C”, the “self-splicing fitness (ln)” value was -2.1 ± 0.26.
Take UACAAGCAAUAUUACGUCCU: the “self-splicing fitness (ln)” value by setting is: (30 °C) -1.16 ± 0.1; (37 °C) 0.292 ± 0.15.
The like results for UUUUAGCAAUAUUACGUUUA were, in that order, -1.94 ± 0.22 and -1.05 ± 0.16.
In the case of AACAAGCAAUAUUACGUACG, the “self-splicing fitness (ln)” value runs as follows: (30 °C) -1.65 ± 0.082; (37 °C) -0.628 ± 0.094.
In the case of GGGCAGCAAUAUUACGCCCU, for the setting “30 °C”, the “self-splicing fitness (ln)” value is -2.78 ± 0.4.
With GCUAAGCAAUAUUACGACGA, the “self-splicing fitness (ln)” value is, setting by setting: (30 °C) -0.978 ± 0.088; (37 °C) -0.529 ± 0.1.
ACUUAGCAAUAUUACGCCAU: the “self-splicing fitness (ln)” value reads like this: (30 °C) -2.99 ± 0.35; (37 °C) -2.52 ± 0.38.
Taken in the same sequence, the figures for AAGCAGCAAUAUUACGCCCU were -0.309 ± 0.14 and 0.0798 ± 0.18.
On to UUAAAGCAAUAUUACGUGGC, for which the “self-splicing fitness (ln)” value is, setting by setting: (30 °C) -3.08 ± 0.15; (37 °C) -2.98 ± 0.3.
As for UAUUAGCAAUAUUACGGAGC, where the note is “30 °C”, the “self-splicing fitness (ln)” value is -2.4 ± 0.42.
On to AGCAAGCAAUAUUACGCUAA, for which the “self-splicing fitness (ln)” value is -2.93 ± 0.2 (30 °C) and -1.69 ± 0.16 (37 °C).
The like results for AAGGAGCAAUAUUACGAGUU were, in that order, -3.53 ± 0.17 and -1.65 ± 0.12.
Taken in the same sequence, the figures for UCAAAGCAAUAUUACGCCUU were -3.63 ± 0.26 and -2.93 ± 0.28.
Taken in the same sequence, the figures for ACUGAGCAAUAUUACGUCUG were -3.59 ± 0.28 and -2.43 ± 0.2.
With AUCGAGCAAUAUUACGGCCC, the “self-splicing fitness (ln)” value is, setting by setting: (30 °C) -3.15 ± 0.35; (37 °C) 1.32 ± 0.32.
Taken in the same sequence, the figures for GAUAAGCAAUAUUACGUUCC were -3.71 ± 0.28 and -2.94 ± 0.24.
The like results for GGUAAGCAAUAUUACGGAAA were, in that order, -3.13 ± 0.35 and -0.547 ± 0.16.
Taken in the same sequence, the figures for UGGUAGCAAUAUUACGUCUU were -0.526 ± 0.12 and 0.37 ± 0.13.
Turning to ACGCAGCAAUAUUACGCUCC, for the setting “37 °C”, the “self-splicing fitness (ln)” value is -0.96 ± 0.18.
On to GAUUAGCAAUAUUACGGUAG, for which the “self-splicing fitness (ln)” value (30 °C) was -2.5 ± 0.15 and the “self-splicing fitness (ln)” value (37 °C) was -1.21 ± 0.12.
Turning to GGUAAGCAAUAUUACGCCAU, the “self-splicing fitness (ln)” value runs as follows: (30 °C) -2.39 ± 0.36; (37 °C) -1.86 ± 0.29.
Taken in the same sequence, the figures for AGCAAGCAAUAUUACGCGUC were -3.61 ± 0.15 and -3.06 ± 0.24.
The like results for CCUAAGCAAUAUUACGGCGG were, in that order, -3.12 ± 0.17 and -2.79 ± 0.2.
The like results for UCGAAGCAAUAUUACGUUCA were, in that order, -2.59 ± 0.26 and -1.18 ± 0.17.
Take AGAUAGCAAUAUUACGACCA: the “self-splicing fitness (ln)” value (30 °C) was -0.39 ± 0.16 and the “self-splicing fitness (ln)” value (37 °C) stood at 1.11 ± 0.2.
The like results for CUUGAGCAAUAUUACGGUAG were, in that order, -2.88 ± 0.11 and -0.826 ± 0.094.
Consider UAUUAGCAAUAUUACGAGUU, for which the “self-splicing fitness (ln)” value is -2.88 ± 0.16 (30 °C) and -0.971 ± 0.15 (37 °C).
The like results for GCCAAGCAAUAUUACGAGGU were, in that order, -3.83 ± 0.18 and -2.74 ± 0.26.
Taken in the same sequence, the figures for UUCAAGCAAUAUUACGUCUC were -3.33 ± 0.26 and -1.74 ± 0.18.
Taken in the same sequence, the figures for AGAUAGCAAUAUUACGGGAU were -1.24 ± 0.19 and -1.21 ± 0.16.
Turning to CAGAAGCAAUAUUACGUUAU, the “self-splicing fitness (ln)” value is, setting by setting: (30 °C) -3.44 ± 0.35; (37 °C) -2.75 ± 0.28.
Taken in the same sequence, the figures for CGGCAGCAAUAUUACGAUUC were -2.62 ± 0.17 and -2.3 ± 0.19.
For the sequence GCUGAGCAAUAUUACGUUGU, the “self-splicing fitness (ln)” value (30 °C) was -3.56 ± 0.14 and the “self-splicing fitness (ln)” value (37 °C) was -2.83 ± 0.17.
Turning to CAGCAGCAAUAUUACGGAGG, the “self-splicing fitness (ln)” value reads like this: (30 °C) -1.19 ± 0.082; (37 °C) -0.627 ± 0.12.
Regarding UCGCAGCAAUAUUACGAUUC, the “self-splicing fitness (ln)” value (30 °C) is -3.5 ± 0.48.
Still for that read-out and setting: the figure for UGUUAGCAAUAUUACGAUCC is -0.915 ± 0.34.
Regarding UUUCAGCAAUAUUACGGCCA, the “self-splicing fitness (ln)” value runs as follows: (30 °C) -1.3 ± 0.19; (37 °C) -0.656 ± 0.11.
The like results for AUACAGCAAUAUUACGAAUU were, in that order, -2.71 ± 0.15 and -1.16 ± 0.14.
Taken in the same sequence, the figures for AAUGAGCAAUAUUACGCGAA were -3.05 ± 0.18 and -2.7 ± 0.22.
Taken in the same sequence, the figures for CACGAGCAAUAUUACGGGAC were -3.36 ± 0.2 and -2.55 ± 0.23.
Regarding GAUCAGCAAUAUUACGAUAC, the “self-splicing fitness (ln)” value runs as follows: (30 °C) -1.08 ± 0.078; (37 °C) -0.733 ± 0.12.
Taken in the same sequence, the figures for CUAGAGCAAUAUUACGUCUG were 0.15 ± 0.094 and 0.417 ± 0.11.
For GGUCAGCAAUAUUACGAAAU, the “self-splicing fitness (ln)” value was -1.15 ± 0.097 (30 °C) and 0.351 ± 0.12 (37 °C).
Taken in the same sequence, the figures for UCCUAGCAAUAUUACGCAUA were -2.82 ± 0.3 and -2.11 ± 0.2.
The like results for CGGCAGCAAUAUUACGCGUU were, in that order, -4.11 ± 0.2 and -2.75 ± 0.18.
Taken in the same sequence, the figures for GAGCAGCAAUAUUACGUUAG were -2.57 ± 0.16 and -1.93 ± 0.19.
As to UCUUAGCAAUAUUACGUAUA, the “self-splicing fitness (ln)” value (37 °C) was -3.28 ± 0.3.
For the sequence ACAGAGCAAUAUUACGCGGA, the “self-splicing fitness (ln)” value is -3.57 ± 0.29 (30 °C) and -2.62 ± 0.19 (37 °C).
For the sequence UUCCAGCAAUAUUACGUCGA, the “self-splicing fitness (ln)” value runs as follows: (30 °C) -0.549 ± 0.099; (37 °C) 0.355 ± 0.11.
Taken in the same sequence, the figures for CGCAAGCAAUAUUACGCUUU were -3.44 ± 0.21 and -2.34 ± 0.21.
Taken in the same sequence, the figures for AGCCAGCAAUAUUACGGAGC were -2.39 ± 0.1 and -1.83 ± 0.11.
UUGGAGCAAUAUUACGGGUA: the “self-splicing fitness (ln)” value (37 °C) is -2.02 ± 0.23.
For the sequence UAUUAGCAAUAUUACGCGUU, the “self-splicing fitness (ln)” value is -3.05 ± 0.19 (30 °C) and -0.613 ± 0.15 (37 °C).

For the origin of these results see the supplement of paper PMC7877785.
